Data from paper PMC2804221.

Experiments:
[1] = biological target: GLP-1 receptor E128Q (human) (UniProt P43220)
[2] = biological target: GLP-1 receptor L32A (human) (UniProt P43220)
[3] = biological target: GLP-1 receptor E127Q (human) (UniProt P43220)
[4] = biological target: GLP-1 receptor E127A (human) (UniProt P43220)
[5] = biological target: GLP-1 receptor P90A (human) (UniProt P43220)
[6] = biological target: GLP-1 receptor L123A (human) (UniProt P43220)
[7] = biological target: GLP-1 receptor E68A (human) (UniProt P43220)
Sequence of GLP-1 receptor E68A (human) (P43220 24-463 E68A): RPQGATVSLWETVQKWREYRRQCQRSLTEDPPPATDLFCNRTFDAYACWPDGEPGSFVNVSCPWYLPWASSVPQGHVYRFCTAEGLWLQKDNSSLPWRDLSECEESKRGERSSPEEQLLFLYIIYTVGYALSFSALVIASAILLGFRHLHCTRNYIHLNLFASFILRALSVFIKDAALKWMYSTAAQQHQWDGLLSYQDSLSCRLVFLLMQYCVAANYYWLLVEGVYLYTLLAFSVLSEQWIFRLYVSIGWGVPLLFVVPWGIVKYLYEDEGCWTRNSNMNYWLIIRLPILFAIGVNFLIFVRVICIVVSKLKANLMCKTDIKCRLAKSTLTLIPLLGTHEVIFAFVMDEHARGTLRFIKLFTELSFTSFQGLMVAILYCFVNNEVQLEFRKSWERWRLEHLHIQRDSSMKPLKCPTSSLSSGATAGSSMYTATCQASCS

[8] = biological target: Wild-type human GLP-1 receptor, full length (human) (UniProt P43220)
Sequence of Wild-type human GLP-1 receptor, full length (human) (P43220 24-463): as the sequence (P43220 24-463 E68A) above, with A45E counted along it

[9] = biological target: GLP-1 receptor R121A (human) (UniProt P43220)
Sequence of GLP-1 receptor R121A (human) (P43220 24-463 R121A): as the sequence (P43220 24-463 E68A) above, with A45E, R98A counted along it

[10] = biological target: GLP-1 receptor T35A (human) (UniProt P43220)
Sequence of GLP-1 receptor T35A (human) (P43220 24-463 T35A): as the sequence (P43220 24-463 E68A) above, with T12A, A45E counted along it

[11] = biological target: GLP-1 receptor V36A (human) (UniProt P43220)
Sequence of GLP-1 receptor V36A (human) (P43220 24-463 V36A): as the sequence (P43220 24-463 E68A) above, with V13A, A45E counted along it

[12] = biological target: GLP-1 receptor E128A (human) (UniProt P43220)
Sequence of GLP-1 receptor E128A (human) (P43220 24-463 E128A): as the sequence (P43220 24-463 E68A) above, with A45E, E105A counted along it

[13] = biological target: GLP-1 receptor E128Q (human) (UniProt P43220); test: radioligand binding
[14] = biological target: GLP-1 receptor L32A (human) (UniProt P43220); test: radioligand binding
[15] = biological target: GLP-1 receptor E127Q (human) (UniProt P43220); test: radioligand binding
[16] = biological target: GLP-1 receptor E127A (human) (UniProt P43220); test: radioligand binding
[17] = biological target: GLP-1 receptor P90A (human) (UniProt P43220); test: radioligand binding
[18] = biological target: GLP-1 receptor L123A (human) (UniProt P43220); test: radioligand binding
[19] = biological target: GLP-1 receptor E68A (human) (UniProt P43220); test: radioligand binding
[20] = biological target: Wild-type human GLP-1 receptor, full length (human) (UniProt P43220); test: radioligand binding
[21] = biological target: GLP-1 receptor R121A (human) (UniProt P43220); test: radioligand binding
[22] = biological target: GLP-1 receptor T35A (human) (UniProt P43220); test: radioligand binding
[23] = biological target: GLP-1 receptor V36A (human) (UniProt P43220); test: radioligand binding
[24] = biological target: GLP-1 receptor E128A (human) (UniProt P43220); test: radioligand binding

Sequence of GLP-1 receptor L32A (human) (P43220 24-463 L32A): as the sequence (P43220 24-463 E68A) above, with L9A, A45E counted along it
Sequence of GLP-1 receptor E127A (human) (P43220 24-463 E127A): as the sequence (P43220 24-463 E68A) above, with A45E, E104A counted along it
Sequence of GLP-1 receptor L123A (human) (P43220 24-463 L123A): as the sequence (P43220 24-463 E68A) above, with A45E, L100A counted along it
Sequence of GLP-1 receptor E128Q (human) (P43220 24-463 E128Q): as the sequence (P43220 24-463 E68A) above, with A45E, E105Q counted along it
Sequence of GLP-1 receptor E127Q (human) (P43220 24-463 E127Q): as the sequence (P43220 24-463 E68A) above, with A45E, E104Q counted along it
Sequence of GLP-1 receptor P90A (human) (P43220 24-463 P90A): as the sequence (P43220 24-463 E68A) above, with A45E, P67A counted along it

Work on “Exendin-4 (from UniProt P26349 48-87) (peptide)” yielded an EC50 of cAMP production, transiently transfected HEK293 cells [1] of 8 pM, an EC50 of cAMP production, transiently transfected HEK293 cells [2] of 52 pM and an EC50 of cAMP production, transiently transfected HEK293 cells [3] of 6.8 pM. It also gave an EC50 of cAMP production, transiently transfected HEK293 cells [4] of 11 pM, an EC50 of cAMP production, transiently transfected HEK293 cells [5] of 30 pM and an EC50 of cAMP production, transiently transfected HEK293 cells [6] of 9.5 pM. It also gave an EC50 of cAMP production, transiently transfected HEK293 cells [7] of 9.5 pM, an EC50 of cAMP production, transiently transfected HEK293 cells [8] of 5.5 pM and an EC50 of cAMP production, transiently transfected HEK293 cells [9] of 44 pM. For the same substance, the EC50 of cAMP production, transiently transfected HEK293 cells [10] was 23 pM, the EC50 of cAMP production, transiently transfected HEK293 cells [11] was 36 pM and the EC50 of cAMP production, transiently transfected HEK293 cells [12] was 25 pM. It also gave an IC50 [13] of 0.45 nM, an IC50 [14] of 5.4 nM and an IC50 [15] of 0.82 nM. The IC50 [16] was 5.2 nM, the IC50 [17] was 1.6 nM and the IC50 [18] was 0.33 nM. For the same substance, the IC50 [19] was 0.48 nM, the IC50 [20] was 0.76 nM and the IC50 [21] was 1.2 nM. The IC50 [22] was 0.44 nM, the IC50 [23] was 0.98 nM and the IC50 [24] was 1.8 nM.
